Patent WO2001000678A1 (dated 2001)

Target: HIV-1 MN viral lysate (native gp120) (HIV-1 isolate MN, UniProt P05877 32-513)
Experiment: ELISA, biotinylated Fab on viral lysate; reference HIV-1 IIIb lysate

B1: Fab 7 (Fab, V domains shown)
VH: EVQLQESGPGLVKPSETLSLTCTVSGGSISSSSYYWGWIRQPPGKGLEWIGSIYYSGSTYYNPSLKSRVTISVDTSKNQFSLKLSSVTAAYTAVYYCARRCTSGVCYGAFDYWGQGTPVTVSS
VL: DLVMTQSPSFLSASVGDRVTITCRASQGISSYLAWYQQKSGKAPKLLIYGTSILQSGVPSRFSGSGSGTESTLTISSLQPEDFATYYCQQLNSYPITFGQGTRLEIK
- binding relative to the level seen with IIIb: ~50%
